Source: patent publication US20230212549A1, “COMPOUNDS COMPRISING A […] LIGAND AND USE THEREOF” (priority 2021, published 2023)
Numbered stars: 1 amine (or outer) side, 2 acyl side, 3 side chain; on linkers, the order of the positions; unused ones are H or OH. Bridge positions count the residues as written; N and C are the ends. Square brackets hold non-standard residues; d marks the D form. Primed or numbered codes have the meaning given here. Side chains are listed from the residue outwards. * marks the point of attachment. tMeBn(DOTA-PP) = 1,3,5-trimethylbenzylidene, two thioethers to Cys, third CH2 bound to one N of piperazine whose other N bears DOTA, O=C(O)CN1CCN(CC(=O)O)CCN(CC(=O)N2CCN(Cc3cc(C[*:1])cc(C[*:2])c3)CC2)CCN(CC(=O)O)CC1; Bip = N[C@@H](Cc1ccc(-c2ccccc2)cc1)C(=O)O; Met(O2) = CS(=O)(=O)CC[C@H](N)C(=O)O; mXylylene = c1cc(C[*:1])cc(C[*:2])c1; NMeE = CN[C@@H](CCC(=O)O)C(=O)O; DOTA′ = not defined here; Nphe = O=C(O)CNCc1ccccc1; Apr = not defined here; Hexanoyl = CCCCCC(=O)*

What follows are binders tested against fibroblast activation protein (FAP) on FAP-expressing human WI-38 fibroblasts (human) (UniProt Q12884) (assay: competitive FACS, WI-38 cells, vs Cy5 tracer m3; D = pIC50 <=6.0). Settings: not given.

Row | Binder | pIC50 Category (FACS)
1 | Hexanoyl-CPPTAFC-NH2 (linker 1-7 via mXylylene; SMILES CCCCCC(=O)N[C@H]1CSCc2cccc(c2)CSC[C@@H](C(N)=O)NC(=O)[C@H](Cc2ccccc2)NC(=O)[C@H](C)NC(=O)[C@H]([C@@H](C)O)NC(=O)[C@@H]2CCCN2C(=O)[C@@H]2CCCN2C1=O) [Hex-[Cys(3MeBn)-Pro-Pro-Thr-Ala-Phe-Cys]-NH2] | < 6 pIC50
2 | Hexanoyl-CPPAEFC-NH2 (linker 1-7 via mXylylene; SMILES CCCCCC(=O)N[C@H]1CSCc2cccc(c2)CSC[C@@H](C(N)=O)NC(=O)[C@H](Cc2ccccc2)NC(=O)[C@H](CCC(=O)O)NC(=O)[C@H](C)NC(=O)[C@@H]2CCCN2C(=O)[C@@H]2CCCN2C1=O) [Hex-[Cys(3MeBn)-Pro-Pro-Ala-Glu-Phe-Cys]-NH2] | < 6 pIC50
3 | Hexanoyl-CPPTE[Bip]C-NH2 (linker 1-7 via mXylylene; SMILES CCCCCC(=O)N[C@H]1CSCc2cccc(c2)CSC[C@@H](C(N)=O)NC(=O)[C@H](Cc2ccc(-c3ccccc3)cc2)NC(=O)[C@H](CCC(=O)O)NC(=O)[C@H]([C@@H](C)O)NC(=O)[C@@H]2CCCN2C(=O)[C@@H]2CCCN2C1=O) [Hex-[Cys(3MeBn)-Pro-Pro-Thr-Glu-Bip-Cys]-NH2] | < 6 pIC50
4 | Hexanoyl-CPPTE[Nphe]C-NH2 (linker 1-7 via mXylylene; SMILES CCCCCC(=O)N[C@H]1CSCc2cccc(c2)CSC[C@@H](C(N)=O)NC(=O)CN(Cc2ccccc2)C(=O)[C@H](CCC(=O)O)NC(=O)[C@H]([C@@H](C)O)NC(=O)[C@@H]2CCCN2C(=O)[C@@H]2CCCN2C1=O) [Hex-[Cys(3MeBn)-Pro-Pro-Thr-Glu-Nphe-Cys]-NH2] | < 6 pIC50
5 | Hexanoyl-CPPTE([Apr-DOTA′])FCD-NH2 (linker 1-7 via mXylylene; reading uncertain; also: printed as Hex-[Cys(3MeBn)-Pro-Pro-Thr-Glu(NH-Apr-DOTA′)-Phe-Cys]-Asp-NH2) [Hex-[Cys(3MeBn)-Pro-Pro-Thr-Glu(NH-Apr-DOTA′)-Phe-Cys]-Asp-NH2] | < 6 pIC50

More lines, now with the values ahead:

Row | pIC50 Category (FACS) | Binder
6 | < 6 pIC50 | Hexanoyl-CPPT[NMeE]FC-NH2 (linker 1-7 via mXylylene; SMILES CCCCCC(=O)N[C@H]1CSCc2cccc(c2)CSC[C@@H](C(N)=O)NC(=O)[C@H](Cc2ccccc2)NC(=O)[C@H](CCC(=O)O)N(C)C(=O)[C@H]([C@@H](C)O)NC(=O)[C@@H]2CCCN2C(=O)[C@@H]2CCCN2C1=O) [Hex-[Cys(3MeBn)-Pro-Pro-Thr-Nme-Phe-Cys]-NH2]
7 | < 6 pIC50 | Hexanoyl-CPPT[Met(O2)]FC-NH2 (linker 1-7 via mXylylene; SMILES CCCCCC(=O)N[C@H]1CSCc2cccc(c2)CSC[C@@H](C(N)=O)NC(=O)[C@H](Cc2ccccc2)NC(=O)[C@H](CCS(C)(=O)=O)NC(=O)[C@H]([C@@H](C)O)NC(=O)[C@@H]2CCCN2C(=O)[C@@H]2CCCN2C1=O) [Hex-[Cys(3MeBn)-Pro-Pro-Thr-Moo-Phe-Cys]-NH2]

What follows are binders tested against fibroblast activation protein (FAP) on FAP-expressing human WI-38 fibroblasts (human), Q12884 in the same assay as above. Settings: remark: other sources report otherwise.

Row | pIC50 Category (FACS) | Binder
8 | < 6 pIC50 | Hexanoyl-CPPTEAC-NH2 (linker 1-7 via mXylylene; SMILES CCCCCC(=O)N[C@H]1CSCc2cccc(c2)CSC[C@@H](C(N)=O)NC(=O)[C@H](C)NC(=O)[C@H](CCC(=O)O)NC(=O)[C@H]([C@@H](C)O)NC(=O)[C@@H]2CCCN2C(=O)[C@@H]2CCCN2C1=O) [Hex-[Cys(3MeBn)-Pro-Pro-Thr-Glu-Ala-Cys]-NH2]
9 | < 6 pIC50 | Hexanoyl-CAPTEFC-NH2 (linker 1-7 via mXylylene; SMILES CCCCCC(=O)N[C@H]1CSCc2cccc(c2)CSC[C@@H](C(N)=O)NC(=O)[C@H](Cc2ccccc2)NC(=O)[C@H](CCC(=O)O)NC(=O)[C@H]([C@@H](C)O)NC(=O)[C@@H]2CCCN2C(=O)[C@H](C)NC1=O) [Hex-[Cys(3MeBn)-Ala-Pro-Thr-Glu-Phe-Cys]-NH2]

Each binder was assayed against human fibroblast activation protein (FAP) on WI-38 fibroblasts (human) (UniProt Q12884) (assay: competitive FACS, WI-38 cells, Cy5-labeled peptide as competitor). Settings: not given.

Row | pIC50 Category (FACS) | Binder
10 | < 6 pIC50 | Hexanoyl-CTQPFPCD-NH2 (linker 1-7 via tMeBn(DOTA-PP); SMILES CCCCCC(=O)N[C@H]1CSCc2cc(cc(CN3CCN(C(=O)CN4CCN(CC(=O)O)CCN(CC(=O)O)CCN(CC(=O)O)CC4)CC3)c2)CSC[C@@H](C(=O)N[C@@H](CC(=O)O)C(N)=O)NC(=O)[C@@H]2CCCN2C(=O)[C@H](Cc2ccccc2)NC(=O)[C@@H]2CCCN2C(=O)[C@H](CCC(N)=O)NC(=O)[C@H]([C@@H](C)O)NC1=O) [Hex-[Cys(tMeBn(DOTA-PP))-Thr-Gln-Pro-Phe-Pro-Cys]-Asp-NH2]
